Data: US20260049134A1 (UNIVERSITY OF FLORIDA RESEARCH FOUNDATION, published 2026)

T1: CADM1, endogenous in H929 multiple myeloma cells (human, UniProt Q9BY67 45-442)
T1 construct: Native protein on H929 cells (flow cytometry, siRNA knockdown) and in H929 lysates (IP/MS); RPMI-8226 cells were used for sorting with HW-97; also called IGSF4A
T1 sequence: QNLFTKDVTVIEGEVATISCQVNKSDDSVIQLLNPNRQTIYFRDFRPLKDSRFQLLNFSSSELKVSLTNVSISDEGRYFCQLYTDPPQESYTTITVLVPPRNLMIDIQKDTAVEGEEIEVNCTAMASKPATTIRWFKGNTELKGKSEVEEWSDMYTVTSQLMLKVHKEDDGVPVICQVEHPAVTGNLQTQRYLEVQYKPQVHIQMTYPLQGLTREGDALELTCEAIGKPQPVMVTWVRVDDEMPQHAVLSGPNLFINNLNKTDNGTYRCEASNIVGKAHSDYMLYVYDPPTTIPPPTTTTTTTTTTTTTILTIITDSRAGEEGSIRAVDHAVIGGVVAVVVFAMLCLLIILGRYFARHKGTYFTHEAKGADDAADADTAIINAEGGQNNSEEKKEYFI

T2: PTPRG-Fc (ECD of human PTPRG, aa 20-736, fused to human Fc gamma 1) (human, UniProt P23470 20-736)
T2 construct: Made in-house in Expi293 cells; Used in ELISA and SPR; also called recombinant PTPRG-Fc; PTRPG; not shown: human IgG1 Fc (Fc gamma 1) after the hinge
T2 sequence: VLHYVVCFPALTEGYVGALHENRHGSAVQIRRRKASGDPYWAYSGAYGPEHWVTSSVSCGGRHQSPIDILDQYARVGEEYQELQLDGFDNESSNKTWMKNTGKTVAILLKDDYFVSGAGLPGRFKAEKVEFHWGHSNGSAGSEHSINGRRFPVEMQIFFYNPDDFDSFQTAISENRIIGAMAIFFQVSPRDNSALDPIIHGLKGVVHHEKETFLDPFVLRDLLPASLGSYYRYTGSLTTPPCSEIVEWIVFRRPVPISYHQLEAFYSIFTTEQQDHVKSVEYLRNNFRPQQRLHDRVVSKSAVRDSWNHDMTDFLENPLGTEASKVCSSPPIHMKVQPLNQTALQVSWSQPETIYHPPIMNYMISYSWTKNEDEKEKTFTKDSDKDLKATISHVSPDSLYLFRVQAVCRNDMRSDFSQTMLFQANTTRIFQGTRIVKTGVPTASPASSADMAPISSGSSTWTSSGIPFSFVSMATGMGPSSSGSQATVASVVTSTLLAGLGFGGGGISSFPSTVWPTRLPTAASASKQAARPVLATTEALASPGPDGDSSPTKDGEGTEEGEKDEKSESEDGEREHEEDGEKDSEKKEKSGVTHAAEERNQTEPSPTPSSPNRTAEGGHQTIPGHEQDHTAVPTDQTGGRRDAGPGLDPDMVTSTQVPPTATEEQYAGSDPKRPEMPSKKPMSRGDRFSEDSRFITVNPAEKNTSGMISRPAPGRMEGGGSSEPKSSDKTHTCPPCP

B1: TH9-0022 (antibody, human IgG1, kappa, L234A L235A, V domains shown)
VH: QSLEESGGRLVTPGTPLTLTCTVSGFSLSSYAMNWVRQAPGKGLEWIGIINSYGSTYYASWAKGRFTISKTSTTVDLKITSPTTEDTATYFCARVTYDSYGYGYAPYGMDLWGPGTLVTVSS
VL: LVMTQTPSSTSNAVGGTVTIKCQASQSIGNVLAWYQQKPGQPPKLLIYAASTLASGVPSRVGGSRSGTEYTLTISGVQREDAATYYCLGSDSDSDIAFGGGTELEILR
notes: also called TH9-022; negative control
B2: HW-81 chimeric rabbit-human IgG1 LA/LA/PG (antibody, V domains shown)
VH: QKQLVESGGGLVTPGGTLTLTCTVSGFSLSSNGVSWVRQAPGKGLEYIGLIRSIGSTYYATWAKGRFTISKTSTTVDLKITSPTTEDTATYFCARGGYRNGFKLWGPGTLVTVSS
VL: QPVLTQSPSVSAALGASAKLTCTLSSAHKTYYIEWYQQQHPGKAPRYLMQLQSDGSYTKGTGVPDRFSGSSSGADRYLIISSVQAEDEADYICGVIDSAVYVFGGGTQLTVTG
notes: Fc-silenced (L234A/L235A/P329G) IgG1, lambda; Alexa Fluor 647-labeled in single-step flow cytometry; Cluster C-45
B3: HW-42 chimeric rabbit-human IgG1 LA/LA/PG (antibody, V domains shown)
VH: QSVKESEGGLFKPADTLTLTCTVSGFSLSSNEISWVRQAPGEGLEYIGIIDTGGRAYYAVWARSRSTITRNTNLNTVTLKMTSLTAADTATYFCARGGVDTEWYAFSSWGPGTLVTVPS
VL: SFVLTQPASVQVNLGQTVSLTCTADTLSRRYASWYQQKPGQAPVLLIFRDTSRPSGVPDRFSGSSSGDTATLTISGAQAGDEADYYCATSDGSGSNYQYVFGGGTQLTVTG
notes: Fc-silenced (L234A/L235A/P329G) IgG1, lambda; Alexa Fluor 647-labeled in single-step flow cytometry; Cluster C-1
B4: HW-17 chimeric rabbit-human IgG1 LA/LA/PG (antibody, V domains shown)
VH: QSLGESRGRLVTPDETLTLTCTVSGIDLSSNAMSWVRQAPGEGLEWIGTINTGGRAYYASWAKGRFTISRTSTTVDLKMTSLTTEDTATYFCARERYSDGRAYDIWGPGTLVTISS
VL: SFVLTQPASVQVNLGQTVSLTCTADTLSRRYASWYQQKPGQAPVLLIYTDSNRPSGIPDRFSGSSSGNTATLTISGAQAGDEADYYCATDDGSGSIYQYVFGGGTQLTVTG
notes: as for B3
B5: HW-70 chimeric rabbit-human IgG1 LA/LA/PG (antibody, V domains shown)
VH: QSLEESGGRLVTPGTPLTLTCTVSGFSLSSNAMSWVRQAPGKGLEWIGTIDGYGYTYYASWAKGRFTVSKTSTTVDLKITSPTTEDTATYFCAREIYLGSNFWGPGTLVTISS
VL: SFVLTQPASVQVNLGQTVSLTCTADTLSRRYASWYQQKPGQAPVLLIYRDTSRPSGVPDRFSGSSSGNTATLTISGAQAGDEADYYCATADGSGSSYQFVFGGGTQLTVTG
notes: as for B3
B6: HW-1 chimeric rabbit-human IgG1 LA/LA/PG (antibody, V domains shown)
VH: QSLEESGGGLFKPTDTLTLTCTASGFSLGSSYAISWVRQAPGKELEWIGTIDSGRAYYARWAKSRSTITRNTNENTVTLKMTSLTAADTATYFCARDLIPTYSQDIWGPGTLVTISS
VL: SFVLTQPASVQVNLGQTVSLTCTADTLSRRYASWYQQKPGQAPVLLIYRDTSRPSGVPDRFSGSSSGNTATLTISGAQAGDEADYYCATSDGSGNSYQYVFGGGTQLTVTS
notes: Fc-silenced (L234A/L235A/P329G) IgG1, lambda; Alexa Fluor 647-labeled in single-step flow cytometry; Prototype of cluster C-1
B7: HW-28 chimeric rabbit-human IgG1 LA/LA/PG (antibody, V domains shown)
VH: QKQLVESGGRLVTPGTPLTLTCTASGFSLSSNAMSWVRQAPGEGLQWIGTISSGGSTYYASWAKGRFTISKTSTTVTLKMTSLTTEDTATYFCARGADLHRLWGPGTLVTVSS
VL: SFVLTQPASVQVNLGQTVSLTCTGKPLSRSFASWYQQKPGQAPVLVIYRDTSRPSGVPDRFSGSSSGNTATLTISGAQAGDEADYYCATSDGSGSSYQYVFGGGTQLTVTG
notes: as for B2
B8: HW-97 chimeric rabbit-human IgG1 LA/LA/PG (antibody, V domains shown)
VH: QKQLVESGGRLVTPGTPLTLTCTVTGIDLSSHGMSWVRQAPGKGLEWIGVIYPSGSTWYASWARGRFTISKTSTTVDLKMTSLTTEDTATHFCARGDVGGADNNIWGPGTLVTVSS
VL: SFVLTQPASVQVDLGQTVSLTCTAETLSRSYASWYQQKPGQAPVLLIYRDTSRPSGVPDRFSGSSSGNTATLTISGAQAGDEADYYCATSDGSGSSYQYVFGGGTQLTVTG
notes: Fc-silenced (L234A/L235A/P329G) IgG1, lambda; Alexa Fluor 647-labeled in single-step flow cytometry; Prototype of cluster C-97
B9: HW-101 chimeric rabbit-human IgG1 LA/LA/PG (antibody, V domains shown)
VH: QEQLVESGGRLVTPGTPLTLTCKASGFSLGKYDMSWVRQAPGKGLEWIGTIYAGSGSTWYASWAKGRFTISKTSTTVDLKMTSLTTEDTATYFCARDFLGVNSIWGPGTLVTISS
VL: SFVLTQPASVQVNLGQTVSLTCTADTLSRSYASWYQQKPDQAPVLLIHRDTSRPSGVPDRFSGSNSGNTATLTISGAQAGDEADYYCATSDGSGSNFHFVFGGGTQLTVTG
notes: Fc-silenced (L234A/L235A/P329G) IgG1, lambda; Alexa Fluor 647-labeled in single-step flow cytometry; Cluster C-97
B10: HW-25 chimeric rabbit-human IgG1 LA/LA/PG (antibody, V domains shown)
VH: QSLEESGGRLVTPGTPLTLTCTVSGFSLSSYAMGWVRQAPGKGLEWIGIIDSRGSTYYATWAKGRFTISKTSTTVDLKITSPTTEDTATYFCAREDSYYYDSFNLWGPGTLVTVSS
VL: SFVLTQPASVQVNLGQTVSLTCTADTLSRRYASWYQQKPGQAPVLLIYRDTSRPSGVPDRFSGSSSGNTATLTISGAQAGDEADYYCATSDGSGSSYQCVFGGGTQLTVTG
notes: as for B3
B11: HW-56 chimeric rabbit-human IgG1 LA/LA/PG (antibody, V domains shown)
VH: QSVKESEGGLFKPTDTLTLTCTASGFTVSTNAVTWVRQAPGNGLEYIGTIGRSGSAYFASWAKRRSTLTRDINLNTVTLKMTSLTAADTATYFCVRGSPGYRTAISIWGPGTLVTISS
VL: AVMTQTPSSTSAAVEGTVTINCQASQSISNRLSWFQQKPGQPPKLLIYQASTLASGVPSRFKGSGSGTEFTLTISGVQREDAATYYCLGSYSSSDASFGGGTKLEIKR
notes: Fc-silenced (L234A/L235A/P329G) IgG1, kappa; Alexa Fluor 647-labeled in single-step flow cytometry; Cluster C-45

Legend:
[1] = target: T1, CADM1, endogenous in H929 multiple …; experiment: flow cytometry, H929 + vehicle; None 513
[2] = target: T2, PTPRG-Fc (ECD of human PTPRG, aa …); experiment: ELISA on coated PTPRG-Fc
Description: Recombinant purified ECDs (50-150 ng) of each putative target protein were coated, incubated with 150 ng of the indicated primary antibody, and binding was detected using a peroxidase-conjugated anti-human Fab secondary antibody. Heatmap represents averages of technical triplicates. (8B) Target validation via siRNA knockdown. H929 cells were transfected with siRNA pools targeting the putative antibody targets ICAM1, CADM1, and PTPRG. Cells were then subjected to cognate IgG binding analysis via flow cytometry. (NT, non-targeting siRNA).
ELISA ELISA was conducted as described previously. Briefly, 50-150 ng of antigen was coated overnight in half-area 96-well plates at 4° C., blocked with 3% BSA at 37° C. for 1 h, and 150 ng of chimeric rabbit/human IgG1 was added, incubating for 2 h at 37° C. […] After incubating at 37° C. for 15 min-1 h (depending on intensity of controls), data were acquired using a SpectraMax M5 plate reader (Molecular Devices).

[3] = target: T1, CADM1, endogenous in H929 multiple …; experiment: flow cytometry, H929 + NT Green siRNA; None 1.35
[4] = target: T3, PTPRG, endogenous in H929 multiple myeloma cells (human, UniProt P23470 20-1445); experiment: flow cytometry, H929 + ICAM1 siRNA; None 1.06
T3 construct: Native protein on H929 cells (flow cytometry, siRNA knockdown) and in H929 lysates (IP/MS); also called phosphatase receptor type γ

[5] = target: T3, PTPRG, endogenous in H929 multiple …; experiment: flow cytometry, H929 + ICAM1 siRNA; None 455
[6] = target: T3, PTPRG, endogenous in H929 multiple …; experiment: flow cytometry, H929 + CADM1 siRNA; None 449
[7] = target: T3, PTPRG, endogenous in H929 multiple …; experiment: flow cytometry, H929 + CADM1 siRNA; None 0.89

T3 sequence (P23470 20-1445 limits assumed): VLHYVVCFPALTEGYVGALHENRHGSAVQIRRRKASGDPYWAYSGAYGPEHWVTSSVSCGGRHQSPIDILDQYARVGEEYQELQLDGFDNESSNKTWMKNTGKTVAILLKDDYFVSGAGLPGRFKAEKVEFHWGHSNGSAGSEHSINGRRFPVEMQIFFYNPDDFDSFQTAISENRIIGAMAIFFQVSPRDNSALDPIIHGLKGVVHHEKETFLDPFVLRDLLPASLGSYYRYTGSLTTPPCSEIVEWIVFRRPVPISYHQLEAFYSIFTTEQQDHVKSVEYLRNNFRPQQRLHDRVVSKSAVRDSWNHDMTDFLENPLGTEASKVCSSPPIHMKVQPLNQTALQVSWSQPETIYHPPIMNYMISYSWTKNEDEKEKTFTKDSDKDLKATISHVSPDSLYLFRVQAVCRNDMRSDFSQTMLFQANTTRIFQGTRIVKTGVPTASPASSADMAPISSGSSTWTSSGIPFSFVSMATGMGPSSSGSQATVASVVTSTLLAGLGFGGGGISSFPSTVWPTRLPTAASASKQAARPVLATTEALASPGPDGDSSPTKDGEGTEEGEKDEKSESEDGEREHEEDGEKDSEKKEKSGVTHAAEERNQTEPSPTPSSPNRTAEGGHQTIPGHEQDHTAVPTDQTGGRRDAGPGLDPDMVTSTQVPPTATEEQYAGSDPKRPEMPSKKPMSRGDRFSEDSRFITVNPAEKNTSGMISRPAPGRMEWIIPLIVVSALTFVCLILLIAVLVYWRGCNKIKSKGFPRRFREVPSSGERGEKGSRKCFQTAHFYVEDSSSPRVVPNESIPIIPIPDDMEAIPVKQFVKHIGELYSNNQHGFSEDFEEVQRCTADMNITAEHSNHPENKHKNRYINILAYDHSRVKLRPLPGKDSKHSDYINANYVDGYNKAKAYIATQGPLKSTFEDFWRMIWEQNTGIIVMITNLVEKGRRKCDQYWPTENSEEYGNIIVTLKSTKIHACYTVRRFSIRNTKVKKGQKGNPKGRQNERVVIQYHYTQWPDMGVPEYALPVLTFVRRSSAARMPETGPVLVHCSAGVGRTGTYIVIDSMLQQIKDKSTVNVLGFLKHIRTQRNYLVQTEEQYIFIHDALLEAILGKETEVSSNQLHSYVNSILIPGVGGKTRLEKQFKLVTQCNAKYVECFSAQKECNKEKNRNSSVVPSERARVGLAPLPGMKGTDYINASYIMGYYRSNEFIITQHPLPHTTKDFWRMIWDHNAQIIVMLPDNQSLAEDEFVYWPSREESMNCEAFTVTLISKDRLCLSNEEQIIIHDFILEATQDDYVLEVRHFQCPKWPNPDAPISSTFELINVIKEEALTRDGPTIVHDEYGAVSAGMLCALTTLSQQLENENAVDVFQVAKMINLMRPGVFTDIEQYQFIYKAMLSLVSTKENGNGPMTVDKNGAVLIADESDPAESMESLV

Binder	mAb binding (MFI) [1]	binding result [2]	Cells stained (%) [3] [%]	Cells stained (%) [4] [%]	mAb binding (MFI) [5]	mAb binding (MFI) [6]	Cells stained (%) [7] [%]
B1	595	no binding (tested: 150 ng IgG1 per well)	1.86	–	–	–	–
B2	–	no binding (tested: 150 ng IgG1 per well)	–	–	–	–	–
B3	–	–	–	96.9	12100	9210	97.3
B4	–	–	–	98.4	28000	21000	99.3
B5	–	–	–	97.4	17900	13800	98.7
B6	–	–	–	98.2	24500	17500	99.3
B7	–	no binding (tested: 150 ng IgG1 per well)	–	–	–	–	–
B8	9510	–	98.1	–	–	–	–
B9	5940	–	94.3	–	–	–	–
B10	–	–	–	97.2	11400	8720	97.7
B11	–	no binding (tested: 150 ng IgG1 per well)	–	–	–	–	–
